In series [1] the target is T1, FXR-DBD;RXR-DBD (human;human, UniProt Q96RI1-1;P19793 117-217;130-212, |). The series is described as follows: X-ray crystallography.
Series [2] has as its target T1, FXR-DBD;RXR-DBD. Nature of the series: fluorescence polarization.
In the next series the target is T2, FXR-DBD (human, UniProt Q96RI1-1 117-217).
T2 sequence: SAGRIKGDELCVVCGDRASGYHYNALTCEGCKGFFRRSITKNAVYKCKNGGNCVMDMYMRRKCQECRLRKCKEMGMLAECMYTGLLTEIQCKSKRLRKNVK
The series is described as follows: fluorescence polarization. (In fluorescence polarisation assays a small probe gives low polarisation when free and higher when bound to something large.)

In publication PMC10242635 one finds binding result and Kd data, which are given here for two molecules.

T1 sequence (P19793 130-212, one chain of several): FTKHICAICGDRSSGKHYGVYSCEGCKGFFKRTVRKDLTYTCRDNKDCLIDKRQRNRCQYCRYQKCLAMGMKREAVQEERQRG

B1: IR1 (crystal) (dsDNA)
DNA 1: CCGAGGTCAATGACCTCG
DNA 2: CCGAGGTCATTGACCTCG
In the case of B1, in the series with FXR-DBD;RXR-DBD [1], the binding result is “binds”.

B2: IR1 (FPA) (dsDNA)
DNA 1: CCGAGGTCAATGACCTCG
DNA 2: CGAGGTCATTGACCTCGG
Turning to B2, the Kd – broadly, the equilibrium constant for the complex coming apart – with FXR-DBD;RXR-DBD [2] was roughly 54 nM; with FXR-DBD it was 95 nM.
